From PMC7873564

Biological target: mouse IgMκ paraprotein TEPC183
Assay: flow cytometry on cells
Conditions: mean ± 1 SD from three independent experiments; parent: est. 3.7; read off a plot

human IgM Fc receptor (FcµR), wild type (from UniProt O60667-1) N66del
response (MFI index (x10^2)): 2.1
